Laboratory results published in US20210155676A1.
Substitutions are numbered along the chain they refer to.

B1: PGT121.42 hIgG1/hLambda (antibody)
heavy: QMQLQESGPGLVKPSETLSLTCSVSGASISDSYWSWIRRSPGKGLEWIGYVHKSGDTNYNPSLKSRVHLSLDTSKNQVSLSLSSVTAADSGKYYCARTLHGRRIYGIVAFNEWFTYFYMDVWGKGTQVTVSSASTKGPSVFPLAPSSKSTSGGTAALGCLVKDYFPEPVTVSWNSGALTSGVHTFPAVLQSSGLYSLSSVVTVPSSSLGTQTYICNVNHKPSNTKVDKKVEPKSCDKTHTCPPCPAPELLAGPDVFLFPPKPKDTLMISRTPEVTCVVVDVSHEDPEVKFNWYVDGVEVHNAKTKPREEQYNSTYRVVSVLTVLHQDWLNGKEYKCKVSNKALPLPEEKTISKAKGQPREPQVYTLPPSREEMTKNQVSLTCLVKGFYPSDIAVEWESNGQPENNYKTTPPVLDSDGSFFLYSKLTVDKSRWQQGNVFSCSVLHEALHSHYTQKSLSLSPGK
light: not shown
B2: PGT121.60 hIgG1/hLambda (antibody)
heavy: B1 heavy with S83T, S84G, K124T
light: not shown
B3: PGT121.61 hIgG1/hLambda (antibody)
heavy: B1 heavy with S83T, S84G, K124T
light: SDISVAPGETARISCGEKSLGSRAVQWYQHRAGQAPSLIIYNNQDRPSGIPERFSGSPDSRPGTTATLTITSVEAGDEADYYCHIWDSRVPTKWVFGGGTKLTVLGQPKAAPSVTLFPPSSEELQANKATLVCLISDFYPGAVTVAWKADSSPVKAGVETTTPSKQSNNKYAASSYLSLTPEQWKSHRSYSCQVTHEGSTVEKTVAPTECS
B4: PGT121.64 hIgG1/hLambda (antibody)
heavy: B1 heavy with M2L, S32A, S83T, S84G, T98A, K124T
light: not shown
B5: PGT121.65 hIgG1/hLambda (antibody)
heavy: B1 heavy with M2L, S32A, S83T, S84G, T98A, K124T
light: B3 light
B6: PGT121.56 hIgG1/hLambda (antibody)
heavy: B1 heavy with N60S, H68N, S83V, S84A, V85A, K124N
light: not shown

Target: Env of 92 subtype B viruses
Assay: cell-based or functional assay

Binder	PGT121 IC50/Variant IC50 [fold]	neutralization Coverage (%)	neutralization Median IC95 [µg/mL]
B1	1.2	63	0.277
B2	1.9	59.8	0.177
B3	1	58.7	0.327
B4	2.6	59.8	0.129
B5	2	59.8	0.165
B6	–	62	0.265
